Data from US20220411487A1 (Regeneron, published 2022).

T1: full length mouse TMPRSS6 on HEK293 cells (HEK293/mTMPRSS6) (mouse, UniProt Q9DBI0 1-811)
T1 construct: line sorted for high expression
T1 sequence: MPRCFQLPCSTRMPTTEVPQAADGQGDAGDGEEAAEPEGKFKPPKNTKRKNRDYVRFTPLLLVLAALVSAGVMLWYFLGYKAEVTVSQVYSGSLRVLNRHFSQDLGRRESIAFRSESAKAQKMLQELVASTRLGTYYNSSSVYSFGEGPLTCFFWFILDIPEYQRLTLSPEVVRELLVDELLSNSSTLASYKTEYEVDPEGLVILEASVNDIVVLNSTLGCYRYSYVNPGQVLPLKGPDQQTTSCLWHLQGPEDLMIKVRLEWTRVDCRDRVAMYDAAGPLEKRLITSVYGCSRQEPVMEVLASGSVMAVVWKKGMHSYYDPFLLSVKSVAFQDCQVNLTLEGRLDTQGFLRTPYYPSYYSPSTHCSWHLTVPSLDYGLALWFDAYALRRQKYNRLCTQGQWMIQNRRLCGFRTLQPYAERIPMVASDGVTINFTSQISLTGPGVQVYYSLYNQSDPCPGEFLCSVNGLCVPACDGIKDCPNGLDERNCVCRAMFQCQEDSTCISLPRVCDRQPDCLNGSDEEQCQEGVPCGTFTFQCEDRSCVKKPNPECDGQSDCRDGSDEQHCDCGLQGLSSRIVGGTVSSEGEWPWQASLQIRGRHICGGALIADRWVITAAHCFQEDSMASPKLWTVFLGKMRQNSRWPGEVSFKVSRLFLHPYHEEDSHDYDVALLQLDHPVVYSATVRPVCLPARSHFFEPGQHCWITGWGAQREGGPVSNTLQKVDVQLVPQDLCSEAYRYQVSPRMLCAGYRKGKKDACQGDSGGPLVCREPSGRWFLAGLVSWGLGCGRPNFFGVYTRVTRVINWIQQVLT

T2: full length cynomolgous monkey TMPRSS6 on HEK293 cells (HEK293/mfTMPRSS6) (cynomolgous monkey/Macaca fascicularis, UniProt Q8IU80 10-811 (human entry))
T2 chain: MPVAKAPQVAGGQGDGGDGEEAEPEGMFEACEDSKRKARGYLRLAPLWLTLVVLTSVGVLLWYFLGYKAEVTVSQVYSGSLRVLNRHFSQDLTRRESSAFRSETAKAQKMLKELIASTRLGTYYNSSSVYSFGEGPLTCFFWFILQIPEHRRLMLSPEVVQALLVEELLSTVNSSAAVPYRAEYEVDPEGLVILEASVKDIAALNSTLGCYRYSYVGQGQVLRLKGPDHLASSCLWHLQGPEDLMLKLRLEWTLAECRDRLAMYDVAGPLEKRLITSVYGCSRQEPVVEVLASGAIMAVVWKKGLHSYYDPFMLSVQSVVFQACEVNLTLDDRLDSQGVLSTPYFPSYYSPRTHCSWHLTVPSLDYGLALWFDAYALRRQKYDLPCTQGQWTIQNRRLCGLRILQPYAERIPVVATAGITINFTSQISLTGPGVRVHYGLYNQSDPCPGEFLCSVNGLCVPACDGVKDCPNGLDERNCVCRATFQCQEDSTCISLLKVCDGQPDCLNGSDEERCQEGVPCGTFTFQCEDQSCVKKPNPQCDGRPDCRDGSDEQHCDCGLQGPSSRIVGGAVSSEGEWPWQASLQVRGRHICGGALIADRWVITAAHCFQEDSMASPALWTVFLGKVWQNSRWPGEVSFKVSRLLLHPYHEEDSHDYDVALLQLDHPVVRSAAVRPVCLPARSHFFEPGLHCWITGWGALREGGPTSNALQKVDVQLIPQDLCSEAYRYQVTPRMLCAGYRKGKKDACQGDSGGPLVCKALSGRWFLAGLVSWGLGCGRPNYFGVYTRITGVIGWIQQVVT


Columns and labels:
[1] = target: T3, mTMPRSS6_S762A-MMH (mouse, UniProt Q9DBI0 81-811); assay: SPR, mAb captured via anti-hFc, 37 C
T3 construct: also called REGN6848; mouse TMPRSS6 extracellular domain with a S762A mutation and a C-terminal myc-myc-hexahistidine tag
Description: (§1) The equilibrium dissociation constant (KD) for TMPRSS6 binding to different TMPRSS6 monoclonal antibodies (mAbs) was determined using a real-time surface plasmon resonance biosensor using a Biacore 4000 instrument. All binding studies were performed in 10 mM HEPES, 150 mM NaCl, 3 mM EDTA, and 0.05% v/v Surfactant Tween-20, pH 7.4 (HBS-ET) running buffer at 25° C. and 37° C. The Biacore CM5 sensor chip surface was first derivatized by amine coupling with a human Fc specific mouse mAb to capture different TMPRSS6 mAbs. […] Different concentrations (100 nM to 3.7 nM, 3-fold serial dilution) of the TMPRSS6 reagent proteins prepared in HBS-EP running buffer were injected over the TMPRSS6 mAb captured surface for 150 seconds at a flow rate of 30 μL/min and their dissociation in HBS-ET running buffer was monitored for 10 minutes. At the end of each cycle, the TMPRSS6 mAb captured surface was regenerated using a 12 second injection of 20 mM phosphoric acid.
(§2) The association rate (kₐ) and dissociation rate (kd) were determined by fitting the real-time binding sensorgrams to a 1:1 binding model with mass transport limitation using Scrubber 2.0 (BioLogic Software) curve-fitting software. Binding dissociation equilibrium constant (KD) and dissociative half-life (t½) were calculated from the kinetic rates as: […]

[2] = target: T3, mTMPRSS6_S762A-MMH; assay: SPR, mAb captured via anti-hFc, 25 C
Description: as §1, §2

[3] = target: T1, full length mouse TMPRSS6 on HEK293 …; assay: flow cytometry, HEK293/mTMPRSS6 cells
[4] = target: T2, full length cynomolgous monkey TMPRSS6 …; assay: cell-based or functional assay
[5] = target: T1, full length mouse TMPRSS6 on HEK293 …; assay: cell-based or functional assay
[6] = target: T1, full length mouse TMPRSS6 on HEK293 …; assay: cell-based or functional assay; remark: listed apart in the source

T3 sequence (Q9DBI0 other isoform, or with tags, fused parts or gaps S762A S762A): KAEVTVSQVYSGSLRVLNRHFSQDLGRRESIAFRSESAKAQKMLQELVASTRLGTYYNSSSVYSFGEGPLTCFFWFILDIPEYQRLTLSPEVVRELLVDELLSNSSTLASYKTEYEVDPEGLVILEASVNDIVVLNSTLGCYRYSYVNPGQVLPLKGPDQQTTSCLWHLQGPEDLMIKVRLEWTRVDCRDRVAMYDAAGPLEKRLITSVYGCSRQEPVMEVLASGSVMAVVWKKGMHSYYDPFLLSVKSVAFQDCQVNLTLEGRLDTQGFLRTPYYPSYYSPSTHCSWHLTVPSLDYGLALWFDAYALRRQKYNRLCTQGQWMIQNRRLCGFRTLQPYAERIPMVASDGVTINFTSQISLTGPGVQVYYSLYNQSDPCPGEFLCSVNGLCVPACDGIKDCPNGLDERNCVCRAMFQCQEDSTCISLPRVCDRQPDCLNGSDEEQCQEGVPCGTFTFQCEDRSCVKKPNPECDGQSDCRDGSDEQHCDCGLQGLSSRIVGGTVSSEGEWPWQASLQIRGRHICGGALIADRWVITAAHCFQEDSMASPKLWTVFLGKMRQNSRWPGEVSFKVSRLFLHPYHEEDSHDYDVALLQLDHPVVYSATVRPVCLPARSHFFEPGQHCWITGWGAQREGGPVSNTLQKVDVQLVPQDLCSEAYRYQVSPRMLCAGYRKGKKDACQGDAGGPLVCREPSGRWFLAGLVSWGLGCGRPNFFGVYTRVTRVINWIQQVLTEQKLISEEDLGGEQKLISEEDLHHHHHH

Binder | 100 nM Ag Bound [1] | 100 nM Ag Bound [2] | binding result [2] | binding result [3] | % inhibition, HEK293 bioassay, overnight pre-incubation 37 C [4] | IC50, HEK293 bioassay, overnight pre-incubation 37 C [4] | % inhibition, HEK293 bioassay, 30 min pre-incubation 25 C [5] | IC50, HEK293 bioassay, 30 min pre-incubation 25 C [5] | Kd [1] | koff [1] | kon [1] | t½ [1] | Kd [2] | koff [2] | kon [2] | t½ [2] | % inhibition, HEK293 bioassay, overnight pre-incubation 37 C [6] | IC50, HEK293 bioassay, overnight pre-incubation 37 C [6]
REGN7969 (antibody, human IgG4 S228P, kappa, V domains shown, fully human; human IgG4 Fc with hinge S108P; also called mAb37746) VH: QVQLVESGGGVVQPGRSLRLSCAASGFTFNNYGMHWVRQAPGKGLEWVAIISYDGSNEYYSDSVKGRFTISRDNSKNTLYLQMNSLRAEDTAVYYCARDQDYGGNLFHYWGQGTLVTVSS VL: not shown | 2 RU | 4 RU | no binding (tested: 100 nM) | no binding (tested: 375 nM) | 89% | 13 nM |  |  |  |  |  |  |  |  |  |  |  | 
REGN7974 (antibody, human IgG4 S228P, kappa, V domains shown, fully human; human IgG4 Fc with hinge S108P; also called mAb41422) VH: EVQLVESGGGLVQPGRSLRLSCIASGFNFGDYGMSWVRQAPGKGLEWVGFIRSKAYGGTTEYAASVKGRFTISRDDSKSIAYLQMNSLKTEDAAMYYCSRDYYDILTGYYGDYWGQGTLVTVSS VL: not shown | 3 RU | 3 RU | no binding (tested: 100 nM) | no binding (tested: 375 nM) | 31% | > 10 nM |  |  |  |  |  |  |  |  |  |  |  | 
REGN7999 (antibody, human IgG4 S228P, kappa, V domains shown, fully human; human IgG4 Fc with hinge S108P; also called mAb41450) VH: EVQLVESGGGLVQPGGSLRLSCAASGFTFSSYAMTWVRQAPGKGLEWVSAISGSDTSTYYADSVKGRFTISRDNSKNTLFLQMNSLRAEDTAVYYCAKHQDYDFSYYYSAMDVWGQGTTVTVSS VL: DIQMTQSPSSLSASVGDRVIITCRASQDFNSWLAWYQQKPGKAPKLLIYAASSLQSGVPSRFSGSGSGTDFTLTISSLQPEDFATYYCQQTDSFPFTFGPGTKVDIKR | 130 RU | 178 RU |  |  | 91% | 21 nM | 88% | 3.6 nM | 0.317 nM | 0.00016 s⁻¹ | 505000 M⁻¹ s⁻¹ | 72 min | 0.0829 nM | 3.45e-05 s⁻¹ | 416000 M⁻¹ s⁻¹ | 334 min | 103% | 2.1 nM
REGN7977 (antibody, V domains shown, fully human; human IgG4 Fc with hinge S108P; also called mAb41465) VH: EVQLVESGGGLVKPGGSLRVSCAASGVTFSNVWMSWVRQVPGKGLEWVGRIKSKTDGGTTDYAAPVKGRFTISKDDSKNTLFLQMNSLKTEDTAVYYCTTETGDFWSGYYPRFQHWGQGTLVTVSS VL: DIQMTQSPSSLSASVGDRVTITCRASQYISTYLNWYQQKPGKAPSLLIYAASSLQSGVPSRFSGSGSGTDFTLTISSLQPEDFASYSCQQSYSTPPYTFGQGTKLEIKR | 9 RU | 20 RU |  |  | 81% | > 10 nM | 58% | 35 nM | 703 nM | 0.227 s⁻¹ | 323000 M⁻¹ s⁻¹ | 0.05 min | 233 nM | 0.067 s⁻¹ | 288000 M⁻¹ s⁻¹ | 0.17 min | 97% | 14 nM

Now from value to binder:

100 nM Ag Bound [1] | 100 nM Ag Bound [2] | binding result [2] | binding result [3] | % inhibition, HEK293 bioassay, overnight pre-incubation 37 C [4] | IC50, HEK293 bioassay, overnight pre-incubation 37 C [4] | % inhibition, HEK293 bioassay, 30 min pre-incubation 25 C [5] | IC50, HEK293 bioassay, 30 min pre-incubation 25 C [5] | Kd [1] | koff [1] | kon [1] | t½ [1] | Kd [2] | koff [2] | kon [2] | t½ [2] | % inhibition, HEK293 bioassay, overnight pre-incubation 37 C [6] | IC50, HEK293 bioassay, overnight pre-incubation 37 C [6] | Binder
 |  |  | no binding (tested: 375 nM) | 89% | 6 nM |  |  |  |  |  |  |  |  |  |  |  |  | REGN7971 (antibody, human IgG4 S228P, kappa, V domains shown, fully human; human IgG4 Fc with hinge S108P; also called mAb37763) VH: QVQLVESGGGVVQPGRSLRLSCAASGFTFSTYGMHWVRQAPGKGLEWVAIISYDGSNDYYLDSVKGRFTISRDNSKNTLYLQMNNLRAEDTAVYYCAKDQGYGGNLFASWGQGTLVTVSS VL: not shown
189 RU | 209 RU |  |  | 91% | 2.8 nM | 82% | 1.5 nM | 24.7 nM | 0.00666 s⁻¹ | 269000 M⁻¹ s⁻¹ | 1.7 min | 1.84 nM | 0.0011 s⁻¹ | 599000 M⁻¹ s⁻¹ | 10 min | 98% | 1.2 nM | REGN8023 (antibody, human IgG4 S228P, kappa, V domains shown, fully human; human IgG4 Fc with hinge S108P; also called mAb37699) VH: EVQLVESGGGLVKPGGSLRISCAASGFIFVDYAMHWVRQAPGKGLEWVSGISWNSGSIGYADSVKGRFTISRDNAKKSLYLQMSGLRPEDTALYYCVKSGFYYVRSYFDNWGQGTLVTVSS VL: DIVMTQSPLSLPVTPGEPASISCRSSQSLLDSDDGNTYLDWYLRKPGQSPQLLIYTLSYRASGVPDRFSGSGSGTDFTLKISRVEADDVGVYYCMQRIEFPLTFGGGTKVEIKR
